Assay: yeast display, Sf9 membrane polyspecificity reagent, FACS + sequencing; frameworks hold sequencing errors
Summary of the method: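 A synthetic nanobody library was expressed on Saccharomyces cerevisiae BJ5465 by galactose induction for 36–48 hours. The library was stained for 1 hour at 4 °C with 10% biotinylated, detergent-solubilized Sf9 membrane reagent and enriched with streptavidin microbeads before FACS. Low and high (top ~1%) gates were set on anti-HA fluorescence for expression and streptavidin fluorescence for reagent binding, and each polyreactivity label reflects the gate of origin.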

Row | Sequence | polyreactivity (PSR sort gate)
1 | QVQLVESGGGLVQAGGSLRLSCAASGRTFLVNAMGWYRQAPGKERELVAVITRGGSTNYADSVKGRFTISRDNAKNTVYLQMNSLKPEDTAVYYCAAEAYYGLWMDYWGQGTQVTVSS | low polyreactivity
2 | QVQLVESGGGLVQAGGSLRLSCAASGRTFLVYAMGWYRQAPGKDRELVAAISSDGSTHYADSVKGRFTISRDNAKKTVYLQMNSLHPEDTAVYYCARDYYAFSYLYDYWGQGTQVTVSS | low polyreactivity
3 | QVQLVESGGGLVQAGGSLRLSCAASGRTFLVYARGWYRQAPGKERELVATIRASTGSTYADSVKGRFTISRDNAKNTVYLQMNSLKPEDTAVYYCAAQPRYRHQTYNYWGQGTQVTVSS | high polyreactivity
4 | QVQLVESGGGLVQAGGSLRLSCAASGRTFLVYTMGWYRQAPGKERELVAAISWSDGSTYYADSVKGRFTISRDNAKNTVYLQMNSLKPEDTAVYYCAARRTGYLYRYGYWGQGTQVTVSS | low polyreactivity
5 | QVQLVESGGGLVQAGGSLRLSCAASGRTFLWYAMGWYRQAPGKERELVAAITTAGSTYYADSVKGLFTISRDNAKNTVYLLMNSLKPEDTAVYYCNRLTYAYPPPVLGVGHDSWGQGTQVTVSS | low polyreactivity
6 | QVQLVESGGGLVQAGGSLRLSCAASGRTFLWYDMGWYRQAPGKERELVAGITSDGITYYADSVKGRFTISRDNAKNTVNLQMNSLKPEDTAVYYCAADGIYPDAVYFGYPMYYWGQGTQVTVSS | low polyreactivity
7 | QVQLVESGGGLVQAGGSLRLSCAASGRTFLYNAMGWYREAPGTERELVAAISTNGSSTYYADSVKGRFTISRDNAKNTVYLQMNSLKPEDTAVYYCAAQPPLDYEFPYRYGYWGQGTQVTVSS | low polyreactivity
8 | QVQLVESGGGLVQAGGSLRLSCAASGRTFLYNVMGWYRQAPGKERELVAAITSGGRTYYADSVKGRFTISRDNAKNTVYLQMNSLKPEVTAVYYCAADPYFYYYGYDYWGQGTQVTVSS | low polyreactivity
9 | QVQLVESGGGLVQAGGSLRLSCAASGRTFLYYAMGWYRQAPGKERELVAAITWSGGSTYYADSVKGRFTISRDNAKNTVYLQMNSLKPEDTAVYYCAALGWIDWYWQPGMDYWGQGTQVTVSS | high polyreactivity
10 | QVQLVESGGGLVQAGGSLRLSCAASGRTFLYYAMGWYRQAPGKERELVASISTGGSTNYADSVKGRFTISRDNAKNTVYLQMNSLKPEDTAVYYCATEYPYSYFSIAHYHHGYWGQGTQVTVSS | low polyreactivity
11 | QVQLVESGGGLVQAGGSLRLSCAASGRTFMRNAMGLYRQAPGKERELVAAISRSGGSTYYADSVKGRFTISRDNAKNTVYLQMNSLKPEDTAVYYCAADDYGGYYYWGQGTQVTVSS | high polyreactivity
12 | QVQLVESGGGLVQAGGSLRLSCAASGRTFNAMGWSRQAPGKERELVASISRRGGSTSYADSVKGRFTISRDNAKNTVYLQMYSLKPEDTAVYYCAARVGWVRYGYWGQGTQVTVSS | low polyreactivity
13 | QVQLVESGGGLVQAGGSLRLSCAASGRTFNDYTMGWYRQAPGKERELVAAISSSGVRTYYADSVKGRFTISRDNAKNTVYLQMNSLKPEDTAVYYAKRAGYDRRWTYDYWGQGTQVTVSS | high polyreactivity
14 | QVQLVESGGGLVQAGGSLRLSCAASGRTFNFYAMGWYRQAPGKERELVATISGGVSTYYADSVKGRFTISRDNAKNTVYLQMNSLKPEDTAVYYCAKDSGYPQWDLDYWGQGTQVTVSS | high polyreactivity
15 | QVQLVESGGGLVQAGGSLRLSCAASGRTFNGDAMGWYRQAPGKERELVAAISSSGGSTYYADSVKGRFTISRDNAKNTVYLQMNSLKPEDTAVYYCAARRANGFNYWGHGTQVTVSS | high polyreactivity
16 | QVQLVESGGGLVQAGGSLRLSCAASGRTFNGNTMGWYRQAPGKERQLVAAISRNGGRTYYADSVKGRFTISRDNAKNTVYLQMNSLKPEDTAVYYCATVYRPGGVYGYWGQGTQVTVSS | high polyreactivity
17 | QVQLVESGGGLVQAGGSLRLSCAASGRTFNGYAMGWYRQAPGKERELVAGISWRGTSTYYADSVKGRFTISRDNAKNTVYLQMNSLKPEDTAVYYCAADVWRVQHRGYNYWGQGTQVTVSS | high polyreactivity
18 | QVQLVESGGGLVQAGGSLRLSCAASGRTFNGYVMGWYSQAPGKEREFVAVINWSGGNTYYADSVKGRFTISRDNAKNTVYLQMNSLKPEDTAVYYCAARRVRSYAYDYWGQGTQVTVSS | high polyreactivity
19 | QVQLVESGGGLVQAGGSLRLSCAASGRTFNIYAMGWYRQAPGKERELVAAITWRSGSTYYADSVKGRFTISRDNAKNTVYLQMNSLTPEDTAVYYCAAEQWSCVPEFDYWGQGTQVTVSS | high polyreactivity
20 | QVQLVESGGGLVQAGGSLRLSCAASGRTFNIYAMGWYRQAPGKVRELVAAISSGGSTYYADSVKGRFTISRDNAKNTVYLQMNSLKPEDTAVYYCAAVEFELRGDYWGQGTQVTVSS | low polyreactivity
21 | QVQLVESGGGLVQAGGSLRLSCAASGRTFNPYVMGWYRQAPGKERELVARIRGSGTSTYYADSVKGRFTISRDNAKNTVYLHMNSLKPEDTAVYYCAAAQSKYSFYWGDYYYWGQGTQVTVSS | high polyreactivity

Row | Sequence | polyreactivity (PSR sort gate)
22 | QVQLVESGGGLVQAGGSLRLSCAASGRTFNRNAMGWYRPAPGKERELVAAISWGGSRTYYADSVKGRFTISRDNAKNTVYLQMNSLKPEDTAVYYCAVDGFRGRSHGANDYWGQGTQVTVSS | high polyreactivity
23 | QVQLVESGGGLVQAGGSLRLSCAASGRTFNRNAMGWYRQAPGKERELVAAISWGGSRTYYADSVKGRFTISRDNAKNTVYLQMNSLKPEDTAVYYCAVDGFRGRSHGANDYWGQGTQVTVSS | high polyreactivity
24 | QVQLVESGGGLVQAGGSLRLSCAASGRTFNRNAMGWYRQAPGKERELVAAISWGGSRTYYADSVKGRFTISRDTAKNTVYLQMNSLKPEDTAVYYCAVDGFRGRSHGANDYWGQGTQVTVSS | high polyreactivity
25 | QVQLVESGGGLVQAGGSLRLSCAASGRTFNRNTMGWYRQAPGKERELVAGITKRGGSTYYADSVKGRFTISRDNAKNTVYLQMNSLKPEDTAVYYCNAATNGSPPDYDYWGQGTQVNVSS | high polyreactivity
26 | QVQLVESGGGLVQAGGSLRLSCAASGRTFNRYAMGWYRQAPGKERELVAAINSVGSTYYADSVKGRFPISRDNAKNTVYLQMNSLKPEDTAVYYCNAVQGSRFGYWGQGTQVTVSS | high polyreactivity
27 | QVQLVESGGGLVQAGGSLRLSCAASGRTFNRYAMGWYRQAPGKERELVAAISYGGGRTYYADSVKGRFTISRDNAKNTVYLQMYSLKPEDTAVYYCNAVFGYQSPGGYDYWGQGTQVTVSS | high polyreactivity
28 | QVQLVESGGGLVQAGGSLRLSCAASGRTFNSNAMGWYRQAPGKERELVAAISGRTGRTYYADSVKGRFTISRDNAKNTVYLQMNSLKPEDTAVYYCATGTYAAAQGTRYYYWGQGTQVTVSS | high polyreactivity
29 | QVQLVESGGGLVQAGGSLRLSCAASGRTFNSYAMGWYRPAPGKERELVATISSRGGNTFYADSVKGRFTISRDYAKNTVYLQMNRLKPEDTAVYYCAKPGYLRPSRYDYWGQGTQVTVSS | high polyreactivity
30 | QVQLVESGGGLVQAGGSLRLSCAASGRTFNTNAMGWYRQAPGKERELVAAITRSGDSTYYADSVKGRFTISRDNAKNTVYLQMNSLKPEDTAVYYCAAYSRTLYPDRYYWGHGTQVTVSS | high polyreactivity
31 | QVQLVESGGGLVQAGGSLRLSCAASGRTFNTYTMGWYRQAPGKERELVAAITGTGGSTFYADSVKGRFTISRDNAKNTVYLQMNSLKPEDTAVYYCNADLEGTIGVYTDGFDSDYWGQGTQVTVSS | low polyreactivity
32 | QVQLVESGGGLVQAGGSLRLSCAASGRTFNVNVMGWSRQAPGKERELVAAIRYTGGSTYADSVKGRFTISRDNAKNTVYLQMNSLKPEDTAVYYCNADTFFPFDHGMDYWGQGTQVTVSS | low polyreactivity
33 | QVQLVESGGGLVQAGGSLRLSCAASGRTFNVNVMGWYRQAPGKERELVAAIRYTGGSTYADSVKGRFTISRDNAKNTVYLQMNSLKPEDTAVYYCNADTFFPFDHGMDYWGQGTQVTVSS | low polyreactivity
34 | QVQLVESGGGLVQAGGSLRLSCAASGRTFNVYAMGWYRQAPGKERELVAGISSSGGSTYYADSVKGRFTISRDNAKNTVYLQMNSLKPEDTAVYYCNTVYKYHGVRPYGYWGQGTQVTVSS | high polyreactivity
35 | QVQLVESGGGLVQAGGSLRLSCAASGRTFNWNAMGWYRQAPGKERELVAAITSGGSTYNADSVKGLFTISRDNAKNTVYLQMNSLKPEDTAVYYCAGRINFYRSKYYYWGQGTQVTVSS | high polyreactivity
36 | QVQLVESGGGLVQAGGSLRLSCAASGRTFNWYAMGWYRQAPGKERELVAAITQSGGITSYADSVKGRFTISRDNAKNTVYLQMNSLKPEDTAVYYCATTSRYSRSHYDWYDYWGQGTQVTVSS | low polyreactivity
37 | QVQLVESGGGLVQAGGSLRLSCAASGRTFNYYAMGWYRQAPGKERELVAAISSRGGTYYADSVKGRFTISRDNAKNTVYLQMNSLKPEDTAVYYCNAVHYDTISDYWGQGTQVTVSS | high polyreactivity
38 | QVQLVESGGGLVQAGGSLRLSCAASGRTFNYYVMGWYRRAPGKERELVAAITWRGGRTYADSVKGRFTISRDNAKNTVYLQMNSLKPEDTAVYYCAAYTTKGYGYWGQGTQVTVSS | high polyreactivity
39 | QVQLVESGGGLVQAGGSLRLSCAASGRTFPAYAMGWYRQAPGKERELVAAISSSGSRTYYADSVKGRFTISRDNAKNTVYLQMNSLKPEDTAVYYCAARGGRRQKVNRDDYWGQGTQVTVSS | high polyreactivity
40 | QVQLVESGGGLVQAGGSLRLSCAASGRTFPFYAMGWYRQAPGKERELVAAINSGGITNYADSVKGRFTISRDNAKNTVYLQMNSLKPEDTAVYYCAAKTAFYRERGYWGQGTQVTVSS | low polyreactivity
41 | QVQLVESGGGLVQAGGSLRLSCAASGRTFPGNAMGWSRQAPGKERELVATITWSSGRTHYADSVKGRFTISRDNAKNTVYLQMNSLKPEDTAVYYCAAKWIVAVGGFYYWGQGTQVTVSS | low polyreactivity
